Molecular target: T1, GST-ZPSG-1 (UniProt Q07157 417-806)
T1 sequence: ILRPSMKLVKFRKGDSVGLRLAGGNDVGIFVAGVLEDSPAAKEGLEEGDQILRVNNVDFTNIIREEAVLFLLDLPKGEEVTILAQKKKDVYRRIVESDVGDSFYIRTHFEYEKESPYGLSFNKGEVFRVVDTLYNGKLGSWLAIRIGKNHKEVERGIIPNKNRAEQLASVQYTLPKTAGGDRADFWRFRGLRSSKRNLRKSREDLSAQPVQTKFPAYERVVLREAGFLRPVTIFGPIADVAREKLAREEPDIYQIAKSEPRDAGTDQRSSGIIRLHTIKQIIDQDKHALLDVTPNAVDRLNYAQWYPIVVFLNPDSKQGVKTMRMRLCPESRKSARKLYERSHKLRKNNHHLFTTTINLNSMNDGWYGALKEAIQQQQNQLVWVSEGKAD
Assay: supernatant depletion assay

B1: HA-DbpA (natural protein)
chain: not shown
With B1 the Kd was 100 nM.

B2: GFP-tagged C-terminal ZO-1 fragment (GFP-ZO-1-1619-1748) (domain or fragment)
chain: SAVEEDEDEDGHTVVATARGIFNSNGGVLSSIETGVSIIIPQGAIPEGVEQEIYFKVCRDNSILPPLDKEKGETLLSPLVMCGPHGLKFLKPVELRLPHCDPKTWQNKCLPGDPNYLVGANCVSVLIDHF
With B2 the Kd was 66 nM.
